Assay: label from the status in PepcDB records

Row | Sequence | protein production
1 | MMTSAAPKPVRENIARAKAYLRRDDLPRSMAAMATALRELKGTRLIGQARFETEVNIHEYVTELNRHQAVRRFFEAQGVLSTPFVTYAKGAETELAERLESIRAGFEKDVAAHAAQHAAKVAHRKEALLRSGQEKLDAGDAPRGRSFLKRAADEFGHEAGVLTDIGQRLQRAGLLFEAAEMFENAIAAFPKDGHAHAGVVAAYMGLQEYPKAEMAYTRALKQFGTHPKTLVNMARMYLAWRKRDEAWTHIQRALQLAPGDAEAKALLAEIEGRGSRR | failed
2 | MTIEPTQSPSSEPEVHSGEDFVHIDDPRPTGDISLSDSIVNVEKDELLDEAAEEEFRGSDSVFSGGDGGGADDDGGECSSEATKVELPEELAKSVVILTCESTADGGSCDVYLVGTAHVSKVILVLRFHLVLSLQRSCLGIELIFW | failed
3 | MPYTLQHLESEAALAASFDLMRVLRPHLTSPAAYVAQWARQTEQGYRLLAAWDAERIVGLAGYRELENLLYGRFIYVDDLVVSPDLQRSGLGARLLSAVRDEAVQRQCEHFVLDTGLHMPLAQRFYFRQGLLARGMHFTQRLE | failed
4 | MSLGNIFVTGRIAFSLKYEQQTQSLVVHVKECHQLAYADEAKKRSNPYVKTYLLPDKSRQGKRKTSIKRDTVNPLYDETLRYEIPESLLAQRTLQFSVWHHGRFGRNTFLGEAEIQMDSWKLDKKLDHCLPLHGKISAESEGHHHHHH | not failed
5 | MAAVRKIHVTVKFPSKQFTVEVDRTETVSSLKDKIHIVENTPIKRMQLYYSGIELADDYRNLNEYGITEFSEIVVFLKSINRAKD | not failed
6 | MENNPNNNQASLERNELHNTIWKVANELRGSVDGWDFKQYVLGILFYRYISENMTHYINKEERKRDPSFDYAKLSDEKAERGRKHLIEQKGFFIPPSALFCNALKNACHNEDLNVTLQNIFNEIEKSSLGTPSEENVKGLFADLDVNSNKLGSSHQNRVEKLTKILEAIGGMQLGDYLKSGIDVFGDAYEYLMAMYASNAGKSGGEFFTPQEVSELLAKITLHGQESVNKVYDPCCGSGSLLLQFSKVLGDKNVSKGYFGQEINLTTYNLCRINMFLHDINYSKFHIAHGDTLLDPKHEDDEPFDAIVSNPPYSTKWVGDSNPILINDERFSPAGVLAPKNAADLAFTMHMLSYLSNSGTAAIVEFPGVLYRGNAEAKIREYLVKENVIDCVIALPDNLFFGTSIATCILVLKKNKQDDTTLFIDASKEFVKEGKKNKLKERNREKILQTYIERKEIKHFCALANIEKIKENDYNLSVNRYVEQEDTKEAIDIKALNSEIAQIVEKQSALRNRLESIIKELEGGQNA | failed
7 | MEKQIFCQFLVVMMLLSSSQIQGDLRKGCYDLGITVLMGCPDSIDKKLPAPPTPSEGCCTLVRTIGMKCVCEIVNKKIEDTIDMQKLVNVAAACGRPLAPGSQCGSYRVPGA | failed
8 | MQTKKAFLYVFNTMSDWEYGYLIAELNSGRYFKKDLAPLKVITVGANKEMITTMGGLRIKPDISLDECTLESKDLLILPGGTTWSEEIHQPILERIGQALKIGTIVAAICGATDALANMGYLDTRKHTSNNLEYTKMVCPNYKGEKFYELGPAVSDANLVTASGIAPLEFAMEVLKKIDVFTLDALHSWYNLNKTHKPEYFFQLMNSINK | not failed
9 | MTAAGFNSILCLRQLVRLNRRQYSAPAKSVLSGSQTNDQATPPPTSKSADKMRGWQLHNYGDIDELQLSEMLKIPQIRCSNECLVRIRATAVNPIDLAMLRGYGATVLNKMRCQPGDGIEFPLILGREFCGELVQTGMGVSLPLGSRVWGVVPLQATIGSHAEYVAVPSYCLAPAPKELDDYEAASVLYAGLTAWSGLYITGGLGGPCGATTASGGGAHKRVLVLGGSGGVGTLAIQILKSQKVQVLATCSENAIEMVRNLGADLVVDYNNPQAMEELCKYAPYDIVLDCAGQGGQKAAESKYDFRQYITFSSPLLANIDKQGLGVGALKNVFDLFQTNVRSVTQRGGLVKWGFFSPAPQGIQFLQKLVEQRKLMPLIDSSYGFSELPKAFEKMKSGHLRGKIVVKLREETGD | failed
10 | MFVAFNFNKIESITTEKEFKIILNDQIALGKIPDFSKIKITIKVNKDDLKYLDLNKIILFIEASSIKIPGSYKLPIKIKNLNSIHIAEYKLSKTNVLLNLDNKVSKLVKIEPKFKLEHHHHHH | failed
11 | MKGRSGDVNINTNAISTPARVLIYSTAAVLLTIGMKAISSILMPIFFSIFSYLIFAPLVRWLMRKRVPGKISVVLVILVFIFVFVGTTLLFANSLLQLSGRIPNYENQLTSILNSISIYLPEAGVSVESVLRDIAAFAFNVSGDIISGALNAGSTIALIVITTTFLLLDSAGAPVKMQKEGENQPVHISQYTELSRTVINYMLLRTETNLLGGIGTAILLLAGGIDFAVLWGLLFFLFGYIPYLGFYLAAIPPMLLGLFEYGLIGAVGVLVGITIINALVENVIFPSLAGKGLKLSPTLVFLSLFYWSFVLGAAGALIAVPLTIVVKIILESSEETRMIAKLMESSGTRDLDEKSTEENISE | failed
12 | MANQTVERQSWSNRLAYIMTVAGATVGFGATWRFPYLVGENGGGAYVFLFCIAMIVIGIPMILVENVIGRRMKVNAIDAFSGQANGKKIASGWKILGYMGLLGAFGILSYYMVLGGWVLNYIGSLISGNLDLSSPITVETTTAYYQNSIQNSPITILCYAALFVLINFFILTKGIVDGIERSVKYLMPILFIFLLVMVVRNVTLPGATDGISFYLMPDFSKITPKLFVFVLGQVFFALSLGFGVLITLSSYLDKNENLIKTATITGIMNTFIAVLAGFMIFPSLFSFGVAPNSGPTLVFQSLPIVFSNMWGGTIFAIIFFSLLIVAALTTSLTIYEVIITALQEKTKISRKTAIGITLSSTFLIGNIPSVLGDNIWKDVTIMGKSIFDVFDYISGNILFILTALGSAIFVGYVLKDEAKAELGANKTLTTIWFNYVRFVIPIIIIVIFFNSL | failed
13 | VDKKAPQISFQARLLRDNVTIFLDFSGRGLFQRGYREHSGAAPLKENLAAALIIRSGWLNDTSKPLVDPMCGSGTILIEAVSMAAKQAPAINRQSWGFEAWLSHDNAVWQKQLTLAIDSSEENMSNLKVKVFGIDIDERVLRTAQQNARNAQLHQYIEFTCKNTNDMDNTFGQPGTILFNPPYGERIGELPELVENFVLFGQKLKMQFKDWRIAILTANVDLLSMLKLSSFKRYKFKNGPLDCQLALYNLDAKQG | failed
14 | MVVVMNPEQIYGVSNIKSHIPVMLDIEESNYDAWRELFLTHCLSFDVMGHIDGTLLPTNANDVNWQKRDGIVKLSLYGTLTPKQFQGSFVTSSTSRDIWLRIKNQFRNNKDARALRLDSELRTKDIGDMRVADYYRKMKKLADSLRNVDVPVTDRNLVMYVLNGLNPKFDNIINVIKHRQPFPSFDDAATMLQEEEDRLKRAIKPNPTHVDHSSSSTVLACSEAPPVTNFQRSGGNQMGYRGRGRGNNIFRGRGGRFSYYNMPTFNSWNRPPFYQNSYQMWNHPWGYPPYVNTNGGNGLGLLGPRPAY | failed
15 | MSRSAFTALLLSCVLLALSMPARADDLPYRFGLGKADITGEAAEVGMMGYSSLEQKTAGIHMRQWARAFVIEEAASGRRLVYVNTDLGMIFQAVHLKVLARLKAKYPGVYDENNVMLAATHTHSGPGGFSHYAMYNLSVLGFQEKTFNAIVDGIVRSIERAQARLQPGRLFYGSGELRNANRNRSLLSHLKNPDIVGYEDGIDPQMSVLSFVDANGELAGAISWFPVHSTSMTNANHLISPDNKGYASYHWEHDVSRKSGFVAAFAQTNAGNLSPNLNLKPGSGPFDNEFDNTREIGLRQFAKAYEIAGQAQEEVLGELDSRFRFVDFTRLPIRPEFTDGQPRQLCTAAIGTSLAAGSTEDGPGPLGLEEGNNPFLSALGGLLTGVPPQELVQCQAEKTILADTGNKKPYPWTPTVLPIQMFRIGQLELLGAPAEFTVMAGVRIRRAVQAASEAAGIRHVVFNGYANAYASYVTTREEYAAQEYEGGSTLYGPWTQAAYQQLFVDMAVALRERLPVETSAIAPDLSCCQMNFQTGVVADDPYIGKSFGDVLQQPRESYRIGDKVTVAFVTGHPKNDLRTEKTFLEVVNIGKDGKQTPETVATDNDWDTQYRWERVGISASKATISWSIPPGTEPGHYYIRHYGNAKNFWTQKISEIGGSTRSFEVLGTTP | failed
16 | MNAIVEPRRAQPTDSDAILNALPNPVLLVGPDGKIVDANMAAESFFEISTQLLRRQSLTDLVPFGSPLLALIEQVRVGHSPVNEYKVDLGTPRIGADRQVDLHVAPLNERPGHIVVMLQERTIADKMDRQLTHRSAARSVIALAAMLAHEIKNPLSGIRGAAQLLEQQASAEDRMLTRLICDEADRIVTLVDRMEVFGDDRPVARGPVNIHSVLDHVKRLAQSGFARNIKFIEDYDPSLPPVLANQDQLIQVFLNLVKNAAEAVVDLGSDGEIQLTTAFRPGVRLSVPGKKTRVSLPLEFCVRDNGPGVPEDLLPNLFDPFVTTKPSGSGLGLALVAKIVGDHGGIIECESQPRKTTFRVLMPMFNTAKALQSPNGEDAPASSDASQTAR | failed
17 | MSDWQMAEAWTLEEAIANIQQTEDTGKRYYAAWWFGKFRVQDERAVNALLAALKDETDRSPDGGYPLRRNAAKALGKLGNLAAVQPLIESLESPDYYVRESAAQSLEMLGDRQAIPALQALLAGGVAAAVKAEGKPHLVQPYEAVIEALGTIGATAAIAEIEPFLDHEFAKIRYAALRALYQLTQEAHYAEQLMEALNGNQLQLRRSALLDLGAIGYVPAGQAIAKAYAENSLKLISLKGILESHLQRTAETLDADGLQLLELMDSLL | failed
18 | MLKSGRLNFLKLNINSRLLYSTNPQLTKKVIGIDLGTTNSAVAYIRDSNDKKSATIIENDEGQRTTPSIVAFDVKSSPQNKDQMKTLVGMAAKRQNAINSENTFFATKRLIGRAFNDKEVQRDMAVMPYKIVKCESNGQAYLSTSNGLIQSPSQIASILLKYLKQTSEEYLGEKVNLAVITVPAYFNDSQRQATKDAGKLAGLNVLRVINEPTAAALSFGIDDKRNNGLIAVYDLGGGTFDISILDIEDGVFEVRATNGDTHLGGEDFDNVIVNYIIDTFIHENPEITREEITKNRETMQRLKDVSERAKIDLSHVKKTFIELPFVYKSKHLRVPMTEEELDNMTLSLINRTIPPVKQALKDADIEPEDIDEVILVGGMTRMPKIRSVVKDLFGKSPNSSVNPDETVALGAAIQGGILSGEIKNVLLLDVTPLTLGIETFGGAFSPLIPRNTT | failed
19 | MIPTISDVSTVEEWRSVAKDIVQRDGDVNWRATIVDWPGLGYSARPKMDYDTDVMEKFVVDFMNSPESPMSQSGNDDLVIIGGGHAATLALRATQRGLLKPSAIAAVAPTWAGPLPIVFGRDSSMVSRYGMLRGTLRAPGVGWMMYNMLVSNEKSIESQYKSHVYADQTNVTDAIIQSRYELTKQKGSRYVPAAFLTGLLDPVSSREEFLQLFADLEGKLPVMVMSTKGAPKRSKAEMEALRGAKGVSKFVEVEGALLPQEEYPSLVAQELYNFLQETFAKC | failed
20 | MNNVSEERVAEMIWDAVSEGATLKDVHGIPQDMMDGLYAHAYEFYNQGRLDEAETFFRFLCIYDFYNPDYTMGLAAVCQLKKQFQKACDLYAVAFTLLKNDYRPVFFTGQCQLLMRKAAKARQCFELVNERTEDESLRAKALVYLEALKTAETEQHSEQEKELEHHHHHH | not failed
21 | MTAILLHNVAKSYRSYDHPWETLWEVFTKTRRHREWTALHPLSLEIAHGEVVGIVGTNGAGKSTLLKLIAGTLTPSAGDIRVNGHVAALLELGAGFHPDMTGRENVYLGASVMGLSSERVDRLYDGIVEFAGLGEFMDQPVKTYSSGMYMRLAFAVATAADPDVLILDEALSVGDGAFARKSFERIIGYKDAGKTILFCSHSLYQVEAICSRVLWLDHGRLVMDGEPARVVSAYAEFLGGGGEGCGTPDQPAPAAVAGSGVGRLTKVEVEADGVEGRKLTVRSGQTDLTVAVGFASDPALPPPSVGLTITGSNGWAVTSASTSNDGLTISRRPDGSGEVELSFPRFPLLKGAYWVNVFLLCEQGIHLYDRIEHAAELEVVQDGLEQGVVSLPRRWSVNGAPASAVSPTVPTVAAWLEHHHHHH | failed
